Source: publication PMC7559355
Read-outs that look alike come from different tables or passages of the source.

Columns and labels:
[1] = molecular target: Radiolabeled FabA (3H-labeled FabA) (rabbit); assay: SEC; radio-SEC; 3H-FabA (0.57 or 5.7 µM) incubated in cynomolgus monkey vitreous humor supplemented with 50, 100 and 250 µM CSA, 37 °C
[2] = molecular target: Radiolabeled FabA (3H-labeled FabA) (rabbit); assay: SEC; radio-SEC; 3H-FabA (0.57 or 5.7 µM) incubated in cynomolgus monkey vitreous humor at endogenous albumin (0.53 µM), 37 °C
[3] = molecular target: FabA (rabbit Fab with the anti-HSA nanobody ALB8 fused to the C-terminus of the heavy chain) (rabbit); assay: SPR; Fab captured by its His6 tag on an immobilised anti-His antibody (CM3 chip, about 15 RU); albumin 22.2-1800 nM injected; HBS-P+ (10 mM HEPES, 150 mM NaCl, pH 7.4, 0.05% P20), 25 °C; Langmuir 1:1 model
[4] = molecular target: Radiolabeled FabA (3H-labeled FabA) (rabbit); assay: SEC; radio-SEC of dosing formulations, 3H-FabA with equimolar albumin; 100 mM sodium phosphate pH 7.4, 10% ethanol
[5] = molecular target: FabA (rabbit Fab with the anti-HSA nanobody ALB8 fused to the C-terminus of the heavy chain) (rabbit); assay: SPR; Fab captured by its His6 tag on an immobilised anti-His antibody (CM3 chip, about 15 RU); albumin 22.2-1800 nM injected; HBS-P+ (10 mM HEPES, 150 mM NaCl, pH 7.4, 0.05% P20), 25 °C; Langmuir 1:1 model; remark: listed apart in the source
[6] = molecular target: Radiolabeled FabA (3H-labeled FabA) (rabbit); assay: as above
[7] = molecular target: Radiolabeled FabA (3H-labeled FabA) (rabbit)

Substance | stoichiometry N [1] | stoichiometry N [2] | Kd [3] | koff [3] | kon [3] | stoichiometry N [4] | Kd [5] | Kd [6] | vitreous humor exposure (AUCinf) of 3H-FabA in rabbits after intravitreal injection of 0.05 mg co-formulated with 1 or 15 nmol HSA (104 and 230 h∙nmol/mL; FabB control with 1 nmol HSA 72.8) [7] | vitreous humor half-life (t1/2) of 3H-FabA in rabbits after intravitreal injection of 0.05 mg co-formulated with 1 or 15 nmol HSA (58.0 and 149 h; FabB control with 1 nmol HSA 52.1 h) [7]
Cynomolgus serum albumin (from UniProt A2V9Z4 25-608) (natural protein) | 2 | 1 | 66 nM | 0.0065 s⁻¹ | 99000 M⁻¹ s⁻¹ | 1 |  |  |  | 
Human serum albumin (from UniProt P02768 25-609) (natural protein) |  |  | 55 nM |  |  |  | 99 nM | 97 nM | 230 nmol·h/mL | 149 h
